Data on 20 molecules can be found in patent publication US20210388087A1.

Experiment [1] addresses Human CD3eg linker (human). The experiment in a line: SPR; fold vs parent H183/L072.
Experiment [2] deals with Human CD137 ECD (human). Put plainly: single mutant vs template dBBDu183H.
Chain of Human CD137 ECD (human) (chain, as listed by the source limits assumed): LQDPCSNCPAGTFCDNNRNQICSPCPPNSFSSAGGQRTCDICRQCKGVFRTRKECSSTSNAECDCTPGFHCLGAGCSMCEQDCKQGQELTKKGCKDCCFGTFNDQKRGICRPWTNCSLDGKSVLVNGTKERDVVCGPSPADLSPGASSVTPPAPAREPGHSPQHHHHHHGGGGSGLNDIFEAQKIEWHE

Chain of Human CD3eg linker (human) (chain, as listed by the source limits assumed): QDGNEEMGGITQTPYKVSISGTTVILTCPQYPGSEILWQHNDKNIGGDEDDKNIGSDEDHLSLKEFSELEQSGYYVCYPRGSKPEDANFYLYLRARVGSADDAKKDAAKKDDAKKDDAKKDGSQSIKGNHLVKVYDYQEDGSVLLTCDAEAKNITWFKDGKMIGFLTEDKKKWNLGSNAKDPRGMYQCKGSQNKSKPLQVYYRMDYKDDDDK

B1: H183/L072 VL H27dA (antibody, name in Kabat numbering, V domains shown)
VH: QVQLVESGGGLVQPGRSLRLSCAASGFTFSNAWMHWVRQAPGKGLEWVAQIKDKGNAYAAYYAPSVKGRFTISRDDSKNSIYLQMNSLKTEDTAVYYCHYVHYASASTVLPAFGVDAWGQGTTVTVSS
VL: DIVMTQSPLSLPVTPGEPASISCQASQELVAMNRNTYLHWYQQKPGQAPRLLIYKVSNRFPGVPDRFSGSGSGTDFTLKISRVEAEDVGVYYCAQGTSVPFTFGQGTKLEIK
Consider B1, for which the fold change of affinity in experiment [1] amounted to 0 fold.

B2: H183/L072 VH G100hP (antibody, name in Kabat numbering, V domains shown)
VH: QVQLVESGGGLVQPGRSLRLSCAASGFTFSNAWMHWVRQAPGKGLEWVAQIKDKGNAYAAYYAPSVKGRFTISRDDSKNSIYLQMNSLKTEDTAVYYCHYVHYASASTVLPAFPVDAWGQGTTVTVSS
VL: DIVMTQSPLSLPVTPGEPASISCQASQELVHMNRNTYLHWYQQKPGQAPRLLIYKVSNRFPGVPDRFSGSGSGTDFTLKISRVEAEDVGVYYCAQGTSVPFTFGQGTKLEIK
Take B2: the fold change of affinity in experiment [2] is 0 fold.

B3: H183/L072 VH A57W (antibody, name in Kabat numbering, V domains shown)
VH: QVQLVESGGGLVQPGRSLRLSCAASGFTFSNAWMHWVRQAPGKGLEWVAQIKDKGNAYAWYYAPSVKGRFTISRDDSKNSIYLQMNSLKTEDTAVYYCHYVHYASASTVLPAFGVDAWGQGTTVTVSS
VL: DIVMTQSPLSLPVTPGEPASISCQASQELVHMNRNTYLHWYQQKPGQAPRLLIYKVSNRFPGVPDRFSGSGSGTDFTLKISRVEAEDVGVYYCAQGTSVPFTFGQGTKLEIK
As to B3, the fold change of affinity in experiment [2] was 0 fold.

B4: H183/L072 VH V100cP (antibody, name in Kabat numbering, V domains shown)
VH: QVQLVESGGGLVQPGRSLRLSCAASGFTFSNAWMHWVRQAPGKGLEWVAQIKDKGNAYAAYYAPSVKGRFTISRDDSKNSIYLQMNSLKTEDTAVYYCHYVHYASASTPLPAFGVDAWGQGTTVTVSS
VL: DIVMTQSPLSLPVTPGEPASISCQASQELVHMNRNTYLHWYQQKPGQAPRLLIYKVSNRFPGVPDRFSGSGSGTDFTLKISRVEAEDVGVYYCAQGTSVPFTFGQGTKLEIK
In the case of B4, the fold change of affinity in experiment [2] was 0 fold.

B5: H183/L072 VH F100gP (antibody, name in Kabat numbering, V domains shown)
VH: QVQLVESGGGLVQPGRSLRLSCAASGFTFSNAWMHWVRQAPGKGLEWVAQIKDKGNAYAAYYAPSVKGRFTISRDDSKNSIYLQMNSLKTEDTAVYYCHYVHYASASTVLPAPGVDAWGQGTTVTVSS
VL: DIVMTQSPLSLPVTPGEPASISCQASQELVHMNRNTYLHWYQQKPGQAPRLLIYKVSNRFPGVPDRFSGSGSGTDFTLKISRVEAEDVGVYYCAQGTSVPFTFGQGTKLEIK
As to B5, the fold change of affinity in experiment [2] was 0 fold.

B6: H183/L072 VH A32W (antibody, name in Kabat numbering, V domains shown)
VH: QVQLVESGGGLVQPGRSLRLSCAASGFTFSNWWMHWVRQAPGKGLEWVAQIKDKGNAYAAYYAPSVKGRFTISRDDSKNSIYLQMNSLKTEDTAVYYCHYVHYASASTVLPAFGVDAWGQGTTVTVSS
VL: DIVMTQSPLSLPVTPGEPASISCQASQELVHMNRNTYLHWYQQKPGQAPRLLIYKVSNRFPGVPDRFSGSGSGTDFTLKISRVEAEDVGVYYCAQGTSVPFTFGQGTKLEIK
On to B6, for which, in experiment [2], the fold change of affinity is 0 fold.

B7: H183/L072 VH A102P (antibody, name in Kabat numbering, V domains shown)
VH: QVQLVESGGGLVQPGRSLRLSCAASGFTFSNAWMHWVRQAPGKGLEWVAQIKDKGNAYAAYYAPSVKGRFTISRDDSKNSIYLQMNSLKTEDTAVYYCHYVHYASASTVLPAFGVDPWGQGTTVTVSS
VL: DIVMTQSPLSLPVTPGEPASISCQASQELVHMNRNTYLHWYQQKPGQAPRLLIYKVSNRFPGVPDRFSGSGSGTDFTLKISRVEAEDVGVYYCAQGTSVPFTFGQGTKLEIK
With B7, in experiment [2], the fold change of affinity is 0 fold.

B8: H183/L072 VH D101P (antibody, name in Kabat numbering, V domains shown)
VH: QVQLVESGGGLVQPGRSLRLSCAASGFTFSNAWMHWVRQAPGKGLEWVAQIKDKGNAYAAYYAPSVKGRFTISRDDSKNSIYLQMNSLKTEDTAVYYCHYVHYASASTVLPAFGVPAWGQGTTVTVSS
VL: DIVMTQSPLSLPVTPGEPASISCQASQELVHMNRNTYLHWYQQKPGQAPRLLIYKVSNRFPGVPDRFSGSGSGTDFTLKISRVEAEDVGVYYCAQGTSVPFTFGQGTKLEIK
With B8, the fold change of affinity in experiment [2] is 0 fold.

B9: H183/L072 VH N53W (antibody, name in Kabat numbering, V domains shown)
VH: QVQLVESGGGLVQPGRSLRLSCAASGFTFSNAWMHWVRQAPGKGLEWVAQIKDKGWAYAAYYAPSVKGRFTISRDDSKNSIYLQMNSLKTEDTAVYYCHYVHYASASTVLPAFGVDAWGQGTTVTVSS
VL: DIVMTQSPLSLPVTPGEPASISCQASQELVHMNRNTYLHWYQQKPGQAPRLLIYKVSNRFPGVPDRFSGSGSGTDFTLKISRVEAEDVGVYYCAQGTSVPFTFGQGTKLEIK
Turning to B9, the fold change of affinity in experiment [2] was 0 fold.

B10: H183/L072 VH V100iP (antibody, name in Kabat numbering, V domains shown)
VH: QVQLVESGGGLVQPGRSLRLSCAASGFTFSNAWMHWVRQAPGKGLEWVAQIKDKGNAYAAYYAPSVKGRFTISRDDSKNSIYLQMNSLKTEDTAVYYCHYVHYASASTVLPAFGPDAWGQGTTVTVSS
VL: DIVMTQSPLSLPVTPGEPASISCQASQELVHMNRNTYLHWYQQKPGQAPRLLIYKVSNRFPGVPDRFSGSGSGTDFTLKISRVEAEDVGVYYCAQGTSVPFTFGQGTKLEIK
Take B10: the fold change of affinity in experiment [2] was 0 fold.

B11: H183/L072 VH L100dP (antibody, name in Kabat numbering, V domains shown)
VH: QVQLVESGGGLVQPGRSLRLSCAASGFTFSNAWMHWVRQAPGKGLEWVAQIKDKGNAYAAYYAPSVKGRFTISRDDSKNSIYLQMNSLKTEDTAVYYCHYVHYASASTVPPAFGVDAWGQGTTVTVSS
VL: DIVMTQSPLSLPVTPGEPASISCQASQELVHMNRNTYLHWYQQKPGQAPRLLIYKVSNRFPGVPDRFSGSGSGTDFTLKISRVEAEDVGVYYCAQGTSVPFTFGQGTKLEIK
For B11, the fold change of affinity in experiment [2] amounted to 0 fold.

B12: H183/L072 VH K52W (antibody, name in Kabat numbering, V domains shown)
VH: QVQLVESGGGLVQPGRSLRLSCAASGFTFSNAWMHWVRQAPGKGLEWVAQIWDKGNAYAAYYAPSVKGRFTISRDDSKNSIYLQMNSLKTEDTAVYYCHYVHYASASTVLPAFGVDAWGQGTTVTVSS
VL: DIVMTQSPLSLPVTPGEPASISCQASQELVHMNRNTYLHWYQQKPGQAPRLLIYKVSNRFPGVPDRFSGSGSGTDFTLKISRVEAEDVGVYYCAQGTSVPFTFGQGTKLEIK
As for B12, the fold change of affinity in experiment [2] was determined as 0 fold.

B13: H183/L072 VH I51W (antibody, name in Kabat numbering, V domains shown)
VH: QVQLVESGGGLVQPGRSLRLSCAASGFTFSNAWMHWVRQAPGKGLEWVAQWKDKGNAYAAYYAPSVKGRFTISRDDSKNSIYLQMNSLKTEDTAVYYCHYVHYASASTVLPAFGVDAWGQGTTVTVSS
VL: DIVMTQSPLSLPVTPGEPASISCQASQELVHMNRNTYLHWYQQKPGQAPRLLIYKVSNRFPGVPDRFSGSGSGTDFTLKISRVEAEDVGVYYCAQGTSVPFTFGQGTKLEIK
As to B13, the fold change of affinity in experiment [2] came to 0 fold.

B14: H183/L072 VH S100aP (antibody, name in Kabat numbering, V domains shown)
VH: QVQLVESGGGLVQPGRSLRLSCAASGFTFSNAWMHWVRQAPGKGLEWVAQIKDKGNAYAAYYAPSVKGRFTISRDDSKNSIYLQMNSLKTEDTAVYYCHYVHYASAPTVLPAFGVDAWGQGTTVTVSS
VL: DIVMTQSPLSLPVTPGEPASISCQASQELVHMNRNTYLHWYQQKPGQAPRLLIYKVSNRFPGVPDRFSGSGSGTDFTLKISRVEAEDVGVYYCAQGTSVPFTFGQGTKLEIK
With B14, the fold change of affinity in experiment [2] was determined as 0 fold.

B15: H183/L072 VH D52aW (antibody, name in Kabat numbering, V domains shown)
VH: QVQLVESGGGLVQPGRSLRLSCAASGFTFSNAWMHWVRQAPGKGLEWVAQIKWKGNAYAAYYAPSVKGRFTISRDDSKNSIYLQMNSLKTEDTAVYYCHYVHYASASTVLPAFGVDAWGQGTTVTVSS
VL: DIVMTQSPLSLPVTPGEPASISCQASQELVHMNRNTYLHWYQQKPGQAPRLLIYKVSNRFPGVPDRFSGSGSGTDFTLKISRVEAEDVGVYYCAQGTSVPFTFGQGTKLEIK
For the molecule B15, the fold change of affinity in experiment [2] was determined as 0 fold.

B16: H183/L072 VH T100bP (antibody, name in Kabat numbering, V domains shown)
VH: QVQLVESGGGLVQPGRSLRLSCAASGFTFSNAWMHWVRQAPGKGLEWVAQIKDKGNAYAAYYAPSVKGRFTISRDDSKNSIYLQMNSLKTEDTAVYYCHYVHYASASPVLPAFGVDAWGQGTTVTVSS
VL: DIVMTQSPLSLPVTPGEPASISCQASQELVHMNRNTYLHWYQQKPGQAPRLLIYKVSNRFPGVPDRFSGSGSGTDFTLKISRVEAEDVGVYYCAQGTSVPFTFGQGTKLEIK
As to B16, the fold change of affinity in experiment [2] was found to be 0 fold.

B17: H183/L072 VH Y55W (antibody, name in Kabat numbering, V domains shown)
VH: QVQLVESGGGLVQPGRSLRLSCAASGFTFSNAWMHWVRQAPGKGLEWVAQIKDKGNAWAAYYAPSVKGRFTISRDDSKNSIYLQMNSLKTEDTAVYYCHYVHYASASTVLPAFGVDAWGQGTTVTVSS
VL: DIVMTQSPLSLPVTPGEPASISCQASQELVHMNRNTYLHWYQQKPGQAPRLLIYKVSNRFPGVPDRFSGSGSGTDFTLKISRVEAEDVGVYYCAQGTSVPFTFGQGTKLEIK
Consider B17, for which, in experiment [2], the fold change of affinity was 0 fold.

B18: H183/L072 VH H35W (antibody, name in Kabat numbering, V domains shown)
VH: QVQLVESGGGLVQPGRSLRLSCAASGFTFSNAWMWWVRQAPGKGLEWVAQIKDKGNAYAAYYAPSVKGRFTISRDDSKNSIYLQMNSLKTEDTAVYYCHYVHYASASTVLPAFGVDAWGQGTTVTVSS
VL: DIVMTQSPLSLPVTPGEPASISCQASQELVHMNRNTYLHWYQQKPGQAPRLLIYKVSNRFPGVPDRFSGSGSGTDFTLKISRVEAEDVGVYYCAQGTSVPFTFGQGTKLEIK
Regarding B18, the fold change of affinity in experiment [2] was 0 fold.

B19: H183/L072 VH M34W (antibody, name in Kabat numbering, V domains shown)
VH: QVQLVESGGGLVQPGRSLRLSCAASGFTFSNAWWHWVRQAPGKGLEWVAQIKDKGNAYAAYYAPSVKGRFTISRDDSKNSIYLQMNSLKTEDTAVYYCHYVHYASASTVLPAFGVDAWGQGTTVTVSS
VL: DIVMTQSPLSLPVTPGEPASISCQASQELVHMNRNTYLHWYQQKPGQAPRLLIYKVSNRFPGVPDRFSGSGSGTDFTLKISRVEAEDVGVYYCAQGTSVPFTFGQGTKLEIK
Turning to B19, the fold change of affinity in experiment [2] amounted to 0 fold.

B20: H183/L072 VH S99P (antibody, name in Kabat numbering, V domains shown)
VH: QVQLVESGGGLVQPGRSLRLSCAASGFTFSNAWMHWVRQAPGKGLEWVAQIKDKGNAYAAYYAPSVKGRFTISRDDSKNSIYLQMNSLKTEDTAVYYCHYVHYAPASTVLPAFGVDAWGQGTTVTVSS
VL: DIVMTQSPLSLPVTPGEPASISCQASQELVHMNRNTYLHWYQQKPGQAPRLLIYKVSNRFPGVPDRFSGSGSGTDFTLKISRVEAEDVGVYYCAQGTSVPFTFGQGTKLEIK
For the molecule B20, the fold change of affinity in experiment [2] was determined as 0 fold.
